Assays:
Test in all cases: ELISA, bacterial lysate on plate-bound antigen, luminescence
[1] = molecular target: T1, recombinant biotinylated human CD137 protein (Fc-fusion protein, R&D Systems 838-4B) (human, UniProt Q07011 24-186, biotinylated (site not stated))
T1 construct: Bought Fc fusion; The ELISA used the same antigen as the panning; also called CD137-Fc; biotinylated CD137; not shown: Fc part of the bought fusion protein
Description: (§1) Streptavidin-coated Maxisorp plates (Nunc catalog 436110) were blocked for 1 h in Starting Block T20 (Pierce) and then coated with biotinylated CD137 (using same antigen as in panning) or negative controls (an unrelated Fc-fused recombinant protein and human serum albumin) for 1 h. Plates were rinsed with TBST and diluted lysate was applied to plates for 1 h. Following additional rinses, wells were treated with HRP-conjugated anti-Centyrin antibody (PAB25) for 1 h and then assayed with POD (Roche catalog 11582950001).

human serum albumin = molecular target: T2, human serum albumin (human, UniProt P02768 25-609)
T2 construct: Negative control antigen of the screening ELISA; also called HSA
Description: as §1

[2] = molecular target: unrelated Fc-fused recombinant protein (negative control)

T2 sequence (P02768 25-609 limits assumed): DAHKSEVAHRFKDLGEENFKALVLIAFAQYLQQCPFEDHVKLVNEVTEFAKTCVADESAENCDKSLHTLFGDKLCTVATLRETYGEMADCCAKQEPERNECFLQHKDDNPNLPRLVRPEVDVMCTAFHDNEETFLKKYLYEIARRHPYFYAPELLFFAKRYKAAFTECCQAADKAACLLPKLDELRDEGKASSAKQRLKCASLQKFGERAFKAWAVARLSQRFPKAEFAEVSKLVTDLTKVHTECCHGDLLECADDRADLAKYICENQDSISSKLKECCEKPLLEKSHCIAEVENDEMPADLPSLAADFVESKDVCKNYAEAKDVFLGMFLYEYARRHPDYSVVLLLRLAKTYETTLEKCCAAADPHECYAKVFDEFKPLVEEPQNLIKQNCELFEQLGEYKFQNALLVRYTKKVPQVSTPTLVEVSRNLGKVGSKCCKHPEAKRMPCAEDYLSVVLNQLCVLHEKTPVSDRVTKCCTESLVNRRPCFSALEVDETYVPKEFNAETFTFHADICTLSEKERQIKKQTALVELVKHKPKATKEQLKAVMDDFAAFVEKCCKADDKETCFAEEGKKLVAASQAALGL

Row | Binder | ELISA CD137-Fc (RLU) [1] | ELISA HSA (RLU) (human serum albumin) | ELISA Fc Control (RLU) [2]
1 | ISOP120ER5P1E10 (designed binder, not shown: small tags and cut ends, FN3 domain (Centyrin); tested as E. coli lysate) LPAPKNLVVSRVTEDSARLSWTAPDAAFDSFEIYYMEDFHSGEAIVLTVPGSERSYDLTGLKPGTEYWVTIYGVEGGTGSLPLSAIFTT | 810000 RLU | 400 RLU | 720 RLU
2 | ISOP120ER5P1B12 (designed binder, not shown: small tags and cut ends, FN3 domain (Centyrin); tested as E. coli lysate) LPAPKNLVVSRVTEDSARLSWTAPDAAFDSFAIYYIEWTAYGEAIVLTVPGSERSYDLTGLKPGTEYVVRISGVKCGIVSFPLSAIFTT | 1.44e+06 RLU | 800 RLU | 720 RLU
3 | ISOP120FR5P1E9 (designed binder, not shown: small tags and cut ends, FN3 domain (Centyrin); tested as E. coli lysate) LPAPKNLVVSRVTEDSARLSWTAPDAAFDSFIIYYPEYISNGEAIVLTVPGSERSYDLTGLKPGTEYHVTIGVKGGHSWPLSAIFTT | 1.18e+06 RLU | 400 RLU | 320 RLU
4 | ISOP120AR5P1G8 (designed binder, not shown: small tags and cut ends, FN3 domain (Centyrin); tested as E. coli lysate) LPAPKNLVVSRVTEDSARLSWHATFGDPFDSFLIQYQESEKVGEAIVLTVPGSERSYDLTGLKPGTEYTVSIYGVGRHYTVYDSNPLSAIFTT | 541000 RLU | 320 RLU | 320 RLU
5 | ISOP120AR5P1D9 (designed binder, not shown: small tags and cut ends, FN3 domain (Centyrin); tested as E. coli lysate) LPAPKNLVVSRVTEDSARLSWNTDWVHTFDSFLIQYQESEKVGEAIVLTVPGSERSYDLTGLKPGTEYTVSIYGVGRHYTVYDSNPLSAIFTT | 636000 RLU | 320 RLU | 320 RLU
6 | ISOP120FR5P1E10 (designed binder, not shown: small tags and cut ends, FN3 domain (Centyrin); tested as E. coli lysate) LPAPKNLVVSRVTEDSARLSWTAPDAAFDSFLIHYTEQPSKGEAIVLTVPGSERSYDLTGLKPGTEYQVPIGVKGGTQSCPLSAIFTT | 953000 RLU | 320 RLU | 240 RLU
7 | ISOP120AR5P1B12 (designed binder, not shown: small tags and cut ends, FN3 domain (Centyrin)) LPAPKNLVVSRVTEDSARLSWDGDKWANFKFDSFLIQYQESEKVGEAIVLTVPGSERSYDLTGLKPGTEYTVSIYGVGLHYIVYDSNPLSAIFTT | 864000 RLU | 480 RLU | 400 RLU
8 | ISOP120BR5P1C1 (designed binder, not shown: small tags and cut ends, FN3 domain (Centyrin); tested as E. coli lysate) LPAPKNLVVSRVTEDSARLSWVREDAYAFDSFLIQYQESEKVGEAIVLTVPGSERSYDLTGLKPGTEYTVSIYGVSSLHWVVHDSNPLSAIFTT | 438000 RLU | 480 RLU | 480 RLU
9 | ISOP120BR5P1F1 (designed binder, not shown: small tags and cut ends, FN3 domain (Centyrin); tested as E. coli lysate) LPAPKNLVVSRVTEDSARLSWTFHPTFEGFDSFLIQYQESEKVGEAIVLTVPGSERSYDLTGLKPGTEYTVSIYGVKWTVLRPWLSNPLSAIFTT | 542000 RLU | 480 RLU | 480 RLU
10 | ISOP120BR5P1D2 (designed binder, not shown: small tags and cut ends, FN3 domain (Centyrin); tested as E. coli lysate) LPAPKNLVVSRVTEDSARLSWIRKHNHVKWFDSFLIQYQESEKVGEAIVLTVPGSERSYDLTGLKPGTEYTVSIYGVGFLIDTDDSNPLSAIFTT | 361000 RLU | 240 RLU | 720 RLU
11 | ISOP120BR5P1E2 (designed binder, not shown: small tags and cut ends, FN3 domain (Centyrin); tested as E. coli lysate) LPAPKNLVVSRVTEDSARLSWAQELDHFDSFLIQYQESEKVGEAIVLTVPGSERSYDLTGLKPGTEYTVSIYGVYWTWWVRWNSNPLSAIFTT | 882000 RLU | 4960 RLU | 5680 RLU
12 | ISOP120BR5P1F2 (designed binder, not shown: small tags and cut ends, FN3 domain (Centyrin); tested as E. coli lysate) LPAPKNLVVSRVTEDSARLSWTFHPTFEGFDSFLIQYQESEKVGEAIVLTVPGSERSYDLTGLKPGTEYTVSIYGVKWYAGIGYPVSNPLSAIFTT | 299000 RLU | 240 RLU | 400 RLU
13 | ISOP120AR5P1C3 (designed binder, not shown: small tags and cut ends, FN3 domain (Centyrin); tested as E. coli lysate) LPAPKNLVVSRVTEDSARLSWSPVDADFTFDSFLIQYQESEKVGEAIVLTVPGSERSYDLTGLKPGTEYTVSIYGVGRHYTVYDSNPLSAIFTT | 927000 RLU | 240 RLU | 320 RLU
14 | ISOP120BR5P1D3 (designed binder, not shown: small tags and cut ends, FN3 domain (Centyrin); tested as E. coli lysate) LPAPKNLVVSRVTEDSARLSWSEHPTPFATFDSFLIQYQESEKVGEAIVLTVPGSERSYDLTGLKPGTEYTVSIYGVWWVENHFPVSNPLSAIFTT | 1.14e+06 RLU | 400 RLU | 240 RLU
15 | ISOP120BR5P1H3 (designed binder, not shown: small tags and cut ends, FN3 domain (Centyrin); tested as E. coli lysate) LPAPKNLVVSRVTEDSARLSWEESRQFFDSFLIQYQESEKVGEAIVLTVPGSERSYDLTGLKPGTEYTVSIYGVVHRAWLRWNGSNPLSAIFTT | 875000 RLU | 720 RLU | 2000 RLU
16 | ISOP120BR5P1E4 (designed binder, not shown: small tags and cut ends, FN3 domain (Centyrin); tested as E. coli lysate) LPAPKNLVVSRVTEDSARLSWDDQFEDWFDSFLIQYQESEQVGEAIVLTVPGSERSYDLTGLKPGTEYTVSIYGVHTRDWTAWNASNPLSAIFTT | 942000 RLU | 560 RLU | 320 RLU
17 | ISOP120BR5P1G4 (designed binder, not shown: small tags and cut ends, FN3 domain (Centyrin); tested as E. coli lysate) LPAPKNLVVSRVTEDSARLSWAGHYRKIRNFDSFLIQYQESEKVGEAIVLTVPGSERSYDLTGLKPGTEYTVSIYGVKFPYYYATADSNPLSAIFTT | 580000 RLU | 400 RLU | 480 RLU
18 | ISOP120BR5P1A5 (designed binder, not shown: small tags and cut ends, FN3 domain (Centyrin); tested as E. coli lysate) LPAPKNLVVSRVTEDSARLSWAGHYRKIRNFDSFLIQYQESEKVGEAIVLTVPGSKRSYDLTGLKPGTEYTVSIYGVKFPYYYATADSNPLSAIFTT | 503000 RLU | 400 RLU | 640 RLU
19 | ISOP120BR5P1E6 (designed binder, not shown: small tags and cut ends, FN3 domain (Centyrin); tested as E. coli lysate) LPAPKNLVVSRVTEDSARLSWLEGANAEFDSFLIQYQESEKVGEAIVLTVPGSERSYDLTGLKPGTEYTVSIYGVHWVGPWYPVSNPLSAIFTT | 779000 RLU | 400 RLU | 320 RLU
20 | ISOP120BR5P1B7 (designed binder, not shown: small tags and cut ends, FN3 domain (Centyrin); tested as E. coli lysate) LPAPKNLVVSRVTEDSARLSWGAKTRQFDSFLIQYQESEKVGEAIVLTVPGSERSYDLTGLKPGTEYTVSIYGVWWVENHFPVSNPLSAIFTT | 565000 RLU | 480 RLU | 400 RLU
21 | ISOP120BR5P1C7 (designed binder, not shown: small tags and cut ends, FN3 domain (Centyrin); tested as E. coli lysate) LPAPKNLVVSRVTEDSARLSWNVTQKEFDSFLIQYQESEKVGEAIVLTVPGSERSYDLTGLKPGTEYTVSIYGVGNRYYTVYDSNPLSAIFTT | 306000 RLU | 240 RLU | 880 RLU
22 | ISOP120BR5P1D8 (designed binder, not shown: small tags and cut ends, FN3 domain (Centyrin); tested as E. coli lysate) LPAPKNLVVSRVTEDSARLSWKNHTQEWEFDSFLIQYQESEKVGEAIVLTVPGSERSYDLTGLKPGTEYTVSIYGVPIAWLAWTSTSNPLSAIFTT | 942000 RLU | 320 RLU | 480 RLU
